Biological target: T1, recombinant IGFBP-3 protein (rBP3) of the in vitro binding assays with vimentin domains (human, UniProt P17936 28-291)
T1 construct: IGFBP-3, human, recombinant protein; by the pull-down methods it may be the purified His-IGFBP-3; source: recombinant
Assay: pull-down; in vitro binding: glutathione-agarose-bound GST-vimentin (full-length, domains or deletion mutants) incubated with purified recombinant IGFBP-3 or its C-terminal domain; TNE binding buffer, 4 °C; Western blot
Conditions: both partners purified

T1 sequence (P17936 28-291): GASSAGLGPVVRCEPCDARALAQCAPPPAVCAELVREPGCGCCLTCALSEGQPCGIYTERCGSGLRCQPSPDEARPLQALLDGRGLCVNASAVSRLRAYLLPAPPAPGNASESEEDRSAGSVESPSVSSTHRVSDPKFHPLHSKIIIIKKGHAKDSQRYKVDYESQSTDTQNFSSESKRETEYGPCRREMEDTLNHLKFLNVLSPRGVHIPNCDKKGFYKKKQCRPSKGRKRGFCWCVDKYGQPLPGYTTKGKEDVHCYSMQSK

binding result | Binder
binds | GST-tagged head domain of vimentin (1-101 aa) (domain or fragment, human, UniProt P08670 1-101, looked up, vimentin, human, head domain, residues 1-101; source: bacterial expression (pGEX-4T-2), recombinant) MSTRSVSSSSYRRMFGGPGTASRPSSSRSYVTTSTRTYSLGSALRPSTSRSLYASSPGGVYATRSSAVRLRSSVPGVRLLQDSVDFSLADAINTEFKNTRT
binds | GST-tagged vimentin coiled-coil domain deletion mutant ΔCC (1-101 linked with 411-467 aa) (domain or fragment, human, UniProt P08670 1-466, looked up, vimentin, human, head domain (1-101) ligated to tail domain (411-467 as printed); source: bacterial expression (pGEX-4T-2), recombinant) MSTRSVSSSSYRRMFGGPGTASRPSSSRSYVTTSTRTYSLGSALRPSTSRSLYASSPGGVYATRSSAVRLRSSVPGVRLLQDSVDFSLADAINTEFKNTRTISLPLPNFSSLNLRETNLDSLPLVDTHSKRTLLIKTVETRDGQVINETSQHHDDLE

Source: paper PMC7958122, “Insulin-Like Growth Factor Binding Protein-3 Exerts Its Anti-Metastatic Effect in Aerodigestive Tract Cancers by Disrupting the Protein Stability of Vimentin” (Cancers, 2021)
